Measurements published in the supplement of paper PMC7877785.
± gives the uncertainty stated by the source.

Assay: self-splicing fitness, log relative to wild type (ln ratio); higher = more splicing; Tetrahymena group I intron in knt gene, E. coli kanamycin selection, DiMSum; sequences stand for … in CUCUCU…GGAGGGAAAAGUUAUCAGGCAUGCACCUGGUAGCUAGUCUUUAAACCAAUAGAUUGCAUCGGUUUAAAAGGCAAGACCGUCAAAUUGCGGGAAAGGGGUCAACAGCCGUUCAGUACCAAGUCUCAGGGGAAACUUUGAGAUGGCCUUGCAAAGGGUAUGGUAAUAAGCUGACGGACAUGGUCCUAACCACGCAGCCAAGUCCUAAGUCAACAGAUCUUCUGUUGAUAUGGAUGCAGUUCACAGACUAAAUGUCGGUCGGGGAAGAUGUAUUCUUCUCAUAAGAUAUAGUCGGACCUCUCCUUAAUGGGAGCUAGCGGAUGAAGUGAUGCAACACUGGAGCCGCUGGGAACUAAUUUGUAUGCGAAAGUAUAUUGAUUAGUUUUGGAGUACUCGUGGUCG
Method in brief: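 Library with all eight P1ex-region intron nucleotides randomised, intron inside the knt kanamycin-resistance gene on pET-22b(+), in E. coli BL21(DE3). Cells grew overnight at 37°C or 30°C on LB agar with or without 25 μg/mL kanamycin (plus 100 μg/mL carbenicillin, 50 μM IPTG, 0.2% rhamnose), in six replicate transformations. Pooled colonies were amplicon-sequenced on Illumina HiSeq 2500. DiMSum fitness is the error-weighted combination of wild-type-normalised replicate fold changes, kanamycin versus none.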

Sequence	self-splicing fitness (ln) (30 °C)	self-splicing fitness (ln) (37 °C)
ACUUAGCAAUAUUACGAUUU	-0.382 ± 0.07	0.252 ± 0.092
ACUUAGCAAUAUUACGCAGG	-2.19 ± 0.13	-1.79 ± 0.15
ACUUAGCAAUAUUACGCAUG	-1.76 ± 0.085	-0.581 ± 0.11
ACUUAGCAAUAUUACGCCAU	-2.99 ± 0.35	-2.52 ± 0.38
ACUUAGCAAUAUUACGCCCU	-0.568 ± 0.16	0.0637 ± 0.28
ACUUAGCAAUAUUACGCCGG	-1.08 ± 0.14	-0.478 ± 0.18
ACUUAGCAAUAUUACGCCUU	-0.353 ± 0.095	-0.14 ± 0.11
ACUUAGCAAUAUUACGCGAA	-1.74 ± 0.12	-2.14 ± 0.2
ACUUAGCAAUAUUACGCUGA	-2.63 ± 0.49	–
ACUUAGCAAUAUUACGGACA	-1.46 ± 0.14	-0.798 ± 0.14
ACUUAGCAAUAUUACGGACU	-0.341 ± 0.096	0.14 ± 0.16
ACUUAGCAAUAUUACGGCAA	-0.92 ± 0.16	-1.31 ± 0.23
ACUUAGCAAUAUUACGGCCU	-0.24 ± 0.1	0.312 ± 0.11
ACUUAGCAAUAUUACGGCUU	-0.359 ± 0.14	-0.614 ± 0.19
ACUUAGCAAUAUUACGGGGA	-1.38 ± 0.12	-1.18 ± 0.15
ACUUAGCAAUAUUACGGUGC	-3.78 ± 0.24	-1.06 ± 0.17
ACUUAGCAAUAUUACGUAGC	-2.76 ± 0.12	-1.58 ± 0.13
ACUUAGCAAUAUUACGUAUU	-2.02 ± 0.12	-2.26 ± 0.17
ACUUAGCAAUAUUACGUCGU	-1.99 ± 0.079	-1.28 ± 0.088
ACUUAGCAAUAUUACGUGCC	-0.96 ± 0.13	-1.4 ± 0.15
ACUUAGCAAUAUUACGUUGG	-1.67 ± 0.079	-1.05 ± 0.11
AGAAAGCAAUAUUACGAAUG	-2.38 ± 0.15	-2.25 ± 0.19
AGAAAGCAAUAUUACGACCA	-0.541 ± 0.11	0.144 ± 0.15
AGAAAGCAAUAUUACGAUCA	0.101 ± 0.083	0.0881 ± 0.11
AGAAAGCAAUAUUACGAUGG	-2.28 ± 0.15	-3.17 ± 0.35

Sequence	self-splicing fitness (ln) (30 °C)	self-splicing fitness (ln) (37 °C)
AGAAAGCAAUAUUACGCCAA	-3.75 ± 0.17	-2.91 ± 0.069
AGAAAGCAAUAUUACGCGAC	-2.25 ± 0.15	-1.65 ± 0.18
AGAAAGCAAUAUUACGCGCC	-0.784 ± 0.11	0.139 ± 0.14
AGAAAGCAAUAUUACGCUCG	0.431 ± 0.14	0.318 ± 0.18
AGAAAGCAAUAUUACGGACG	-0.883 ± 0.085	-0.116 ± 0.13
AGAAAGCAAUAUUACGUAUU	-2.59 ± 0.13	-1.27 ± 0.14
AGAAAGCAAUAUUACGUGCG	-0.896 ± 0.092	-0.684 ± 0.11
AGAAAGCAAUAUUACGUGUA	-2.13 ± 0.1	-0.737 ± 0.094
AGAAAGCAAUAUUACGUUGC	-4 ± 0.13	-3.36 ± 0.15
AGACAGCAAUAUUACGAGAC	–	-1.59 ± 0.37
AGACAGCAAUAUUACGAGUA	-3.42 ± 0.21	-1.47 ± 0.15
AGACAGCAAUAUUACGAUGU	-3.43 ± 0.12	-0.886 ± 0.088
AGACAGCAAUAUUACGAUUC	-1.12 ± 0.08	-0.569 ± 0.11
AGACAGCAAUAUUACGCACA	-0.582 ± 0.079	-0.0964 ± 0.099
AGACAGCAAUAUUACGCACG	-2.11 ± 0.12	-0.922 ± 0.13
AGACAGCAAUAUUACGCCCC	-0.804 ± 0.24	0.31 ± 0.26
AGACAGCAAUAUUACGCCUA	-1.46 ± 0.16	-0.402 ± 0.17
AGACAGCAAUAUUACGCCUU	-2.75 ± 0.097	-0.727 ± 0.086
AGACAGCAAUAUUACGCGAC	-3.41 ± 0.44	-1.99 ± 0.21
AGACAGCAAUAUUACGCGUC	-3.19 ± 0.29	-2.08 ± 0.24
AGACAGCAAUAUUACGCUCA	-0.572 ± 0.096	0.589 ± 0.12
AGACAGCAAUAUUACGCUGU	-4.06 ± 0.29	-2.54 ± 0.21
AGACAGCAAUAUUACGGAUG	-2.81 ± 0.11	-2.38 ± 0.17
AGACAGCAAUAUUACGGGAC	-2.87 ± 0.18	-2.54 ± 0.23
AGACAGCAAUAUUACGGGGA	-3.11 ± 0.17	-1.82 ± 0.12

Sequence	self-splicing fitness (ln) (30 °C)	self-splicing fitness (ln) (37 °C)
AGACAGCAAUAUUACGGGUA	-2.49 ± 0.1	-2.1 ± 0.095
AGACAGCAAUAUUACGGUCA	-0.457 ± 0.063	-0.0714 ± 0.074
AGACAGCAAUAUUACGUACC	-0.256 ± 0.11	-0.253 ± 0.14
AGACAGCAAUAUUACGUCCA	-0.173 ± 0.092	-0.591 ± 0.14
AGACAGCAAUAUUACGUCCU	-0.567 ± 0.052	-0.257 ± 0.066
AGACAGCAAUAUUACGUCGU	-2.21 ± 0.091	-1.85 ± 0.12
AGACAGCAAUAUUACGUGAC	-2.89 ± 0.15	-1.42 ± 0.13
AGAGAGCAAUAUUACGAAUC	-3.68 ± 0.47	-2.06 ± 0.37
AGAGAGCAAUAUUACGACCU	-1.59 ± 0.18	-0.651 ± 0.26
AGAGAGCAAUAUUACGACUC	-1.4 ± 0.12	-0.408 ± 0.15
AGAGAGCAAUAUUACGACUG	-2.3 ± 0.2	–
AGAGAGCAAUAUUACGAUCC	-2.71 ± 0.24	-1.5 ± 0.32
AGAGAGCAAUAUUACGAUGC	-3.3 ± 0.48	–
AGAGAGCAAUAUUACGAUUU	-1.52 ± 0.11	-0.748 ± 0.11
AGAGAGCAAUAUUACGCAGA	-1.67 ± 0.22	–
AGAGAGCAAUAUUACGCGAC	-2.11 ± 0.34	-1.87 ± 0.39
AGAGAGCAAUAUUACGCGGU	-3.79 ± 0.43	-2.17 ± 0.46
AGAGAGCAAUAUUACGCUUA	-2.39 ± 0.25	-1.32 ± 0.23
AGAGAGCAAUAUUACGGAUA	-2.48 ± 0.21	-1.24 ± 0.21
AGAGAGCAAUAUUACGGAUG	–	-1.4 ± 0.36
AGAGAGCAAUAUUACGGCAU	-2.39 ± 0.18	-1.36 ± 0.18
AGAGAGCAAUAUUACGGCGC	–	-2.13 ± 0.35
AGAGAGCAAUAUUACGGGGG	-2.78 ± 0.34	-1.7 ± 0.36
AGAGAGCAAUAUUACGGUGG	-2.76 ± 0.23	-3.44 ± 0.37
AGAGAGCAAUAUUACGUAUA	–	-1.02 ± 0.32

Sequence	self-splicing fitness (ln) (30 °C)	self-splicing fitness (ln) (37 °C)
AGAGAGCAAUAUUACGUCGG	-2.92 ± 0.25	-2.2 ± 0.26
AGAGAGCAAUAUUACGUCUG	-4.03 ± 0.33	-2.38 ± 0.31
AGAGAGCAAUAUUACGUGAG	-3.12 ± 0.17	-2.9 ± 0.26
AGAGAGCAAUAUUACGUGGU	-3.49 ± 0.29	-3.6 ± 0.37
AGAGAGCAAUAUUACGUUCA	-2.39 ± 0.22	-1.81 ± 0.22
AGAUAGCAAUAUUACGAAAU	-2.87 ± 0.13	-0.838 ± 0.12
AGAUAGCAAUAUUACGACCA	-0.39 ± 0.16	1.11 ± 0.2
AGAUAGCAAUAUUACGACUG	-1.38 ± 0.2	0.221 ± 0.29
AGAUAGCAAUAUUACGAGUA	-1.76 ± 0.3	-1.33 ± 0.2
AGAUAGCAAUAUUACGAGUC	-2.64 ± 0.18	-2.14 ± 0.21
AGAUAGCAAUAUUACGAUAU	-1.02 ± 0.11	-0.119 ± 0.14
AGAUAGCAAUAUUACGAUGC	-2.02 ± 0.15	-0.736 ± 0.16
AGAUAGCAAUAUUACGCAAC	-2.05 ± 0.34	-1.39 ± 0.24
AGAUAGCAAUAUUACGCAGU	-2.55 ± 0.17	-1.49 ± 0.17
AGAUAGCAAUAUUACGCCGC	-3.03 ± 0.3	-2.04 ± 0.32
AGAUAGCAAUAUUACGCGAG	-1.22 ± 0.1	-1.03 ± 0.1
AGAUAGCAAUAUUACGGAAA	-3.51 ± 0.37	-2.34 ± 0.25
AGAUAGCAAUAUUACGGAAC	–	-0.911 ± 0.3
AGAUAGCAAUAUUACGGACC	-0.504 ± 0.15	-0.242 ± 0.12
AGAUAGCAAUAUUACGGACU	0.201 ± 0.1	-0.666 ± 0.093
AGAUAGCAAUAUUACGGGAU	-1.24 ± 0.19	-1.21 ± 0.16
AGAUAGCAAUAUUACGUAGC	-2.88 ± 0.22	-2.16 ± 0.24
AGAUAGCAAUAUUACGUUUA	-2.12 ± 0.13	-1.43 ± 0.13
